Article PMC3720618, “Computational and Experimental Insights into the Mechanism of Substrate Recognition and Feedback Inhibition of Protoporphyrinogen Oxidase” (PLoS ONE, 2013)
Positions count from the first letter of the chain named. Names may count otherwise.

Columns and labels:
[1] = target: T1, human protoporphyrinogen IX oxidase (hPPO) (Homo sapiens, UniProt P50336); test: fluorescence product-formation time courses showing feedback (product) inhibition; type: biochemical
T1 construct: gene PPOX
T1 sequence (P50336 1-477): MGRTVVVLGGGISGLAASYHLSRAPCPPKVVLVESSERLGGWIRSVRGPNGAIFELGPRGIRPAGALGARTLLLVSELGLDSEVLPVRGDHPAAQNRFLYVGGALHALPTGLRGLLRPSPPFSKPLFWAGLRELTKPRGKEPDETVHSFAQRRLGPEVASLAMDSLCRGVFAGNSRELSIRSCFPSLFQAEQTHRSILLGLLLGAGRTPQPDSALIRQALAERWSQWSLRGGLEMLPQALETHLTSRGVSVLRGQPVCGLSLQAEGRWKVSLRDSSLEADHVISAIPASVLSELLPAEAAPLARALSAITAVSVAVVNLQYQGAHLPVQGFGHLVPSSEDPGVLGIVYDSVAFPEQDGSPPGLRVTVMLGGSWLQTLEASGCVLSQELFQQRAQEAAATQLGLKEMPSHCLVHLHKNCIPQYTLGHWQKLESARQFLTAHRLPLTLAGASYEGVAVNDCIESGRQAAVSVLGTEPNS

purified protein = substrate: C=Cc1c2[nH]c(c1C)Cc1[nH]c(c(CCC(=O)O)c1C)Cc1[nH]c(c(C)c1CCC(=O)O)Cc1[nH]c(c(C)c1C=C)C2; test: purified protein
[2] = substrate: C=Cc1c2[nH]c(c1C)Cc1[nH]c(c(CCC(=O)O)c1C)Cc1[nH]c(c(C)c1CCC(=O)O)Cc1[nH]c(c(C)c1C=C)C2; test: continuous fluorometric enzyme kinetics on purified hPPO (Km); type: biochemical, Homo sapiens; conditions: FAD active site next to FAD; model: R97, L166, R168, G169, V170, F331, L334, M368

## C=CC1=C(C)c2cc3[nH]c(cc4nc(cc5[nH]c(cc1n2)c(C)c5CCC(=O)O)C(CCC(=O)O)=C4C)c(C)c3C=C [protoporphyrin IX]
[1]
  fluorescence product-formation time courses showing feedback (product) inhibitio: The product inhibition phenomenon was obvious at low concentrations of PPO

B1: human protoporphyrinogen IX oxidase (hPPO) (Homo sapiens; L166N) (protein)
chain: T1 sequence (P50336 1-477) with L166N
Purified protein; FAD substrate ring C
  Km: 5.13 µM
  kcat: 0.0303 ± 0.00217 s⁻¹
  kcat/Km: 5830 M⁻¹ s⁻¹

B2: human protoporphyrinogen IX oxidase (hPPO) (Homo sapiens) (protein)
chain: T1 sequence (P50336 1-477)
[2]
  Km: 2.08 µM
  kcat: 0.0495 ± 0.0025 s⁻¹
  kcat/Km: 23800 M⁻¹ s⁻¹

B3: human protoporphyrinogen IX oxidase (hPPO) (Homo sapiens; G169A) (protein)
chain: T1 sequence (P50336 1-477) with G169A
Purified protein; FAD substrate ring C
  Km: 2.16 µM
  kcat: 0.00617 ± 0.000667 s⁻¹
  kcat/Km: 2830 M⁻¹ s⁻¹

B4: human protoporphyrinogen IX oxidase (hPPO) (Homo sapiens; F331A) (protein)
chain: T1 sequence (P50336 1-477) with F331A
Purified protein; FAD substrate ring D
  Km: 6.60 µM
  kcat: 0.0727 ± 0.0065 s⁻¹
  kcat/Km: 11000 M⁻¹ s⁻¹

B5: human protoporphyrinogen IX oxidase (hPPO) (Homo sapiens; L334V) (protein)
chain: T1 sequence (P50336 1-477) with L334V
Purified protein; FAD substrate ring D
  Km: 7.08 µM
  kcat: 0.853 ± 0.103 s⁻¹
  kcat/Km: 120000 M⁻¹ s⁻¹

B6: human protoporphyrinogen IX oxidase (hPPO) (Homo sapiens; M368K) (protein)
chain: T1 sequence (P50336 1-477) with M368K
Purified protein; FAD substrate ring A
  Km: 5.63 µM
  kcat: 0.236 ± 0.0183 s⁻¹
  kcat/Km: 42000 M⁻¹ s⁻¹

B7: human protoporphyrinogen IX oxidase (hPPO) (Homo sapiens; F331T) (protein)
chain: T1 sequence (P50336 1-477) with F331T
Purified protein; FAD substrate ring D
  Km: 3.02 µM
  kcat: 0.151 ± 0.0127 s⁻¹
  kcat/Km: 50200 M⁻¹ s⁻¹

B8: human protoporphyrinogen IX oxidase (hPPO) (Homo sapiens; V170T) (protein)
chain: T1 sequence (P50336 1-477) with V170T
Purified protein; FAD substrate ring B
  Km: 2.97 µM
  kcat: 0.128 ± 0.011 s⁻¹
  kcat/Km: 43200 M⁻¹ s⁻¹

B9: human protoporphyrinogen IX oxidase (hPPO) (Homo sapiens; R168S) (protein)
chain: T1 sequence (P50336 1-477) with R168S
Purified protein; FAD substrate ring A
  Km: 11.33 µM
  kcat: 0.0553 ± 0.00367 s⁻¹
  kcat/Km: 4830 M⁻¹ s⁻¹
